# In paper PMC10031476, “Interaction of the bacterial division regulator MinE with lipid bicelles studied by NMR spectroscopy” (The Journal of Biological Chemistry, 2023):
# B1: Full-length Neisseria gonorrhoeae MinE bearing the double mutation E46A/R10Q (natural protein)
# chain: MSLIELLFGQKQKTATVARDRLQIIIAQERAQEGQTPDYLPTLRKALMEVLSKYVNVSLDNIRISQEKQDGMDVLELNITLPEQKKV
# modifications: uniform 2H/15N or 2H/15N/13C isotope labeling
# notes: Dimer with C2 symmetry (about 19 kDa); also called ngMinE; full-length ngMinE; not shown: His6, C-terminal, kept
# Molecular target: the molecule itself
# Assay: NMR (3D 15N-separated NOE spectrum, NOE-TROSY); 2H/15N-labeled ngMinE bound to q = 0.5 DMPC:DHPC bicelles; 150 ms mixing time; 35 °C; 25 mM potassium phosphate pH 6.5, 1 mM EDTA, 1 mM benzamidine hydrochloride
protein,measurement,value
B1,binding result,binds
